{
  "source": "patent US20250122242A1",
  "about": "“SELECTION SYSTEMS, PEPTIDES DETERMINED THEREWITH, AND METHODS OF USING SAME” (Wisconsin Alumni Research Foundation, priority 2023, published 2025)",
  "key": {"hIAPP-T7n": {"target": "hIAPP-T7n (UniProt P00573+P10997)", "sequence (P10997+P00573 fused)": "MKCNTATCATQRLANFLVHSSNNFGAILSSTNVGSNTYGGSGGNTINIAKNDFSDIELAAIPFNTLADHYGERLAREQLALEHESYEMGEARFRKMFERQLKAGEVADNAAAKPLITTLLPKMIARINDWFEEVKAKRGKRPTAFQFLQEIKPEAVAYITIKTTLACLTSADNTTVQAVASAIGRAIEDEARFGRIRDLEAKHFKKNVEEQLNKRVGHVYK", "details": "clonal SP encoding the sequence (FIG. 5E)", "source_text": "Next, we examined if our system could discover inhibitors of other disease-associated APPs. We targeted human islet amyloid polypeptide (hIAPP), which forms amyloid deposits in patients with type-2 diabetes that are hypothesized to contribute to […] dysfunction.^40 To create a selection for hIAPP aggregation inhibitors, we simply cloned hIAPP in place of Aβ42 in our selection circuit (FIG. 2B). We used an SP-encoded CZ6 SICLOPPS library (Z=NDT codon encoded amino acid: R, N, D, C, G, H, I, L, F, S, Y, or V) (˜3×10^6 total sequences). This codon set was chosen to reduce the theoretical library size and facilitate library cloning. The library (total of ˜5×10^6 transformants) was cloned on a SP obtained from an additional 250 hours of PACE using a more stringent selection (FIGS. 10A-10D).\n(§1) Strain S206035 was used for plasmid cloning, amplification, and phage assays. Strain S220835 was used for SP cloning and plaque assays. Plasmids and SPs were cloned by USER assembly or blunt-end ligation. Competent cells were prepared and transformed using the TSS method. Phage propagation and plaque assays were performed as previously described.^54 Unless otherwise noted, phage propagation assays used an input of […] phage to infect a 2 mL culture of host cells."}, "Aβ42-T7n": {"target": "Aβ42-T7n (UniProt P00573+P05067)", "sequence (P05067+P00573 fused)": "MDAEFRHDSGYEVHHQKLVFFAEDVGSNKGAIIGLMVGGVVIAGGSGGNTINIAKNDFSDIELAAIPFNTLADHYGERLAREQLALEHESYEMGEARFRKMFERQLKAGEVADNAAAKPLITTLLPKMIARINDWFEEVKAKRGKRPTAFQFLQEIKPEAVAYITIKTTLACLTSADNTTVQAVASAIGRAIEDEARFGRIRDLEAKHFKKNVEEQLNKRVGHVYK", "details": "clonal SP encoding the sequence", "source_text": "Therefore, we turned to a split-T7 RNA polymerase (T7 RNAP) reporter used to evolve proteins with improved soluble expression.^33 In our new selection, host E. coli express an aggregation-prone protein (APP) fused to the N-terminal half of split-T7 RNAP (T7n). When the APP-T7n fusion is translated, it misfolds due to the APP, preventing T7n from associating with the C-terminal half of split-T7 RNAP (T7c; FIG. 2A). If a SP-encoded inhibitor binds to and prevents APP aggregation, the fused T7n will remain folded and join with T7c to produce full-length T7 RNAP. The reconstituted T7 RNAP then transcribes gIII, which we place under control of the T7 promoter (PT7), producing pill and allowing the SP to reproduce (FIGS. 2A and 2B).\nWe used the SICLOPPS method to biosynthesize cyclic peptides that can be selected in E. coli.^15 In SICLOPPS, a precursor fusion consisting of the C-terminal half of the Ssp DnaE split intein, the peptide sequence to be cyclized, and the N-terminal half of the same split intein undergoes intein splicing after translation to produce head-to-tail cyclized peptides (FIG. 7).\nas §1"}},
  "data": [
    {"substance": "CHVVGVI (cyclised; Circular) [cyclo-CHVVGVI]", "values": [
      {"measurement": "phage propagation activity on hIAPP-T7n selection", "setting": "hIAPP-T7n", "value": "propagated robustly"},
      {"measurement": "phage propagation activity (fitness) on Aβ42-T7n selection", "setting": "Aβ42-T7n", "value": "propagated robustly"}
    ]}
  ]
}
